OD (450nm, 参考630nm) data for three molecules are collected here from patent CN116854812A.

For assay [1], the target named is 沙眼衣原体培养物(购自菲鹏生物) (Chlamydia trachomatis). In words: indirect ELISA, plate coated with C. trachomatis culture diluted 100x; antibody at 5 ng/ml. (In general: In an ELISA, binding on a coated surface is turned into a signal by an enzyme label.)
For assay [2] the target is unchanged. Put plainly: indirect ELISA, plate coated with C. trachomatis culture diluted 100x; antibody at 10 ng/ml.
Assay [3] shares this target. In words: indirect ELISA, plate coated with C. trachomatis culture diluted 100x; antibody at 0 ng/ml (blank).
For assay [4] the target is unchanged. Put plainly: indirect ELISA, plate coated with C. trachomatis culture diluted 100x; antibody at 20 ng/ml.
The target is the same in assay [5]. In words: indirect ELISA, plate coated with C. trachomatis culture diluted 100x; antibody at 2.5 ng/ml.
Assay [6] has the same target. In words: indirect ELISA, plate coated with C. trachomatis culture diluted 100x; antibody at 40 ng/ml.

As for 对照 (antibody), the OD (450nm, 参考630nm) stood at 0.503 OD in assay [1]; 0.825 OD in assay [2]; 0.025 OD in assay [3]; 1.2 OD in assay [4]; 0.291 OD in assay [5]; 1.79 OD in assay [6].

B1: Anti-CT-4B11mut2单克隆抗体 (antibody, part only; not given: light chain, part only)
heavy: QVQVRQSGPGLVQPSQSLSITCTVSGFSLRSHGVNWVRQSPRKGLEWLGVIWKGGSTEYSAAFMSRLSISKDNSKNQIFFKMNSLQADDTAIYYCAKNNDYGRFDYWGQGTLVTVSAAKTTAPSVYPLAPVCGDTTGSSVTLGCLVKGYFPEPVTLTWNSGSLSSGVHTFPAVLQSDLYTLSSSVTVTSSTWPSQSITCNVAHPASSTKVDKKIEPRGPTIKPCPPCKCPAPNLLGGPSVFIFPPKIKDVLMISLSPIVTCVVVDVSEDDPDVQISWFVNNVEVHTAQTQTHREDYNSTLRVVSALPIQHQDWMSGKEFKCKVNNKDLPAPIERTISKPKGSVRAPQVYVLPPPEEEMTKKQVTLTCMVTDFMPEDIYVEWTNNGKTELNYKNTEPVLDSDGSYFMYSKLRVEKKNWVERNSYSCSVVHEGLHNHHTTKSFSRTPGK
Consider B1, for which the OD (450nm, 参考630nm) in assay [1] was found to be 0.959 OD; in assay [2], 1.33 OD; in assay [3], 0.026 OD; in assay [4], 1.71 OD; in assay [5], 0.507 OD; in assay [6], 1.92 OD.

B2: Anti-CT-4B11mut1单克隆抗体 (antibody, mouse IgG2a, kappa, V domains shown)
VH: QVQVRQSGPGLVQPSQSLSITCTVSGFSLRSHGVNWVRQSPRKGLEWLGVIWKGGSTEYSAAFMSRLSISKDNSKNQIFFKMNSLQADDTAIYYCAKNNDYGRFDYWGQGTLVTVSA
VL: EVVLTQSPTTLAASPGETITITCRVSSSISSSYLHWYQQKPGFSPKLLIYRTSNLASGVPARFSGSGSGTSYSLTIGTMEADDVATYYCQQGSSLPRTFGGGTTLEIKR
Regarding B2, the OD (450nm, 参考630nm) in assay [1] was found to be 0.811 OD; in assay [2], 1.14 OD; in assay [3], 0.043 OD; in assay [4] it was 1.65 OD; in assay [5], 0.462 OD; in assay [6], 1.9 OD.
